One test has as its system IL-5. The test can be described thus: Serum IL-5 in tumour-engrafted mice (ELISA). The format is in vivo, CD1-nude mice. On the procedure:
The expression of IL-5 in serum was examined in tumour-engrafted mice treated with IL-17E. CD1-nude mice were engrafted with either C8161 human melanoma cells or MiaPaCa2 pancreatic cancer cells and treated with either PBS or murine IL-17E as described previously. Serum samples were collected individually from each mouse at the endpoint of the experiment, and IL-5 levels were determined by ELISA assay (BD OptEIA; BD Biosciences), according to the manufacturer's instructions. Immunoassay plates were coated with anti-mouse IL-5 monoclonal antibody as a capture antibody and incubated with serial dilutions of mouse sera. Plates were washed three times with wash buffer and blocked for 1 hr at room temp. Plates were incubated with biotinylated anti-mouse IL-5 monoclonal antibody and avidin-horseradish peroxidase conjugate for 1 hour, followed by seven washes. Substrate solution was added for 30 minutes, followed by stop solution, prior to measurement of absorbance (450/570 nm). Statistical analysis was performed to compare IL-5 levels. P values <0.05 were considered to be significant.

The next test has as its target T1, murine IL-17E receptor (Mus musculus, UniProt Q9JIP3).
T1 construct: murine IL-17E receptor present on the pre-B cell line 70Z/3; endogenous in cells; host or cells: murine pre-B cell line 70Z/3
T1 sequence (Q9JIP3 18-499): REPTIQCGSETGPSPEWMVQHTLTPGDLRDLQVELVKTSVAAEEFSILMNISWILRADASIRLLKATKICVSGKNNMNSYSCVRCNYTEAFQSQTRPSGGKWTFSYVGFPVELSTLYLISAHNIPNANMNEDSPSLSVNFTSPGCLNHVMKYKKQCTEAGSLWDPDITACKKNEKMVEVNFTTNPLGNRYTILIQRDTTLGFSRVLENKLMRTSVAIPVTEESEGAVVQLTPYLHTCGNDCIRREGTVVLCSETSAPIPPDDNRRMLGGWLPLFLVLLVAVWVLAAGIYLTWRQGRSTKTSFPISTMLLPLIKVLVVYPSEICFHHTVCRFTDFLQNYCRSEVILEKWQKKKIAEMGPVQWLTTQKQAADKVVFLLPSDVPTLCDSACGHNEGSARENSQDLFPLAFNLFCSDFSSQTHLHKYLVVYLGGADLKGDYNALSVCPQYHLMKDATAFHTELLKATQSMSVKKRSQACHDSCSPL
The experiment in a line: FACS binding to IL-17E receptor on pre-B cell line 70Z/3. The following applies: 1 μg/10^6 cells, 30 minutes at 4° C. Here is the method:
The ability of human and murine interleukin 17E to bind to the IL-17E receptor was examined using the murine pre-B cell line 70Z/3 (Paige, C. J., et al. (1981) Nature 292:631-3).
1×10^6 70Z/3 cells/sample were incubated with either murine or human IL-17E (1 μg/10^6 cells) for 30 minutes at 4° C. After washing twice, cells that had been incubated with murine IL-17E were incubated with biotin-conjugated goat anti-mouse IL17E and phycoerythrin (PE)-Cy5.5-conjugated streptavidin. Cells that had been incubated with human IL-17E were incubated with biotin-conjugated goat anti-human IL17E-biotin and phycoerythrin (PE)-Cy5.5-conjugated streptavidin. As negative controls, cells were stained with antibodies as described without preincubation with human or murine IL-17E. Samples were then fixed with 0.5% paraformaldehyde prior to FACS analysis.

In test [1] the test system is eosinophils (CCR3+) in spleen. The test can be described thus: Eosinophils (CCR3+) in spleen of C8161 tumour xenografted mice. The format is in vivo, CD-1 nude mice. As to conditions: C8161-engrafted mice, Example 21. On the procedure: Briefly, single cell suspensions of spleen cells were obtained by meshing and passing through a cell strainer (70 um; Bectin Dickinson) to separate fibrous tissue. Erythrocytes were lysed with ACK (0.155 M ammonium chloride, 0.1 mM disodium EDTA, 0.01 M potassium bicarbonate, pH 7.3) for 5 minutes on ice. The single cell suspensions of spleen cells were then analyzed by flow cytometry for the presence of eosinophils by surface staining with an antibody to CCR3 using the method as described in Example 13.
The effect of interleukin 17E on increased percentage of splenic eosinophils and B cells and the proportion of activated splenic B cells was examined. CD1-nude mice engrafted with C8161 human melanoma cells were treated with either PBS, murine IL-17E, or human IL-17E as described previously. At the endpoint of the experiment, spleens were isolated from treated mice, stained with markers specific for eosinophils (CCR3+), B cells (either IgM+ or CD19+), and B cell activation (CD-80+, CD86+), and examined by flow cytometry. […]
The percentage of eosinophils was determined by surface staining the granulocyte-gated population with phycoerythrin (PE)-conjugated anti-mouse CCR3. […] The proportion of activated splenic B cells was determined by staining with FITC-conjugated anti-mouse IgM together with PE-conjugated anti-mouse CD80 and PE-conjugated anti-mouse CD86. […]

The test system of a further test is splenic B cells. The test can be described thus: Splenic B cell numbers and activation in C8161 tumour bearing mice (flow cytometry). The format is in vivo, CD-1 nude mice. As to conditions: C8161-engrafted mice. Here is the method:
The increase in B cells was examined in BD-BRM-treated CD-1 nude mice. Briefly, the mice with human melanoma xenografts were treated for 4 weeks with either BD-BRM or PBS, as described in the preceding examples. Splenocytes were examined by flow cytometry for B cells using anti-IgM antibodies.
Antibodies fluorescein isothiocyanate (FITC)-anti-mouse IgM (eB121-15F9; IgG2a), phycoerythrin (PE) anti-mouse CD86 (GL1; IgG2a) and PE anti-mouse CD80 (16-10A1; hamster IgG) were purchased from eBioscience (San Diego, Calif.).
Flow cytometry was performed as described above. Briefly, splenocytes were isolated individually from CD1-nude C8161 tumour bearing mice treated 4 weeks with BD-BRM or PBS. Red blood cells were removed, followed by surface staining with (A) anti-IgM antibody-FITC or (B) anti-IgM-FITC and anti-CD80-PE+anti-CD86-PE by flow cytometry.
The effect of interleukin 17E on increased percentage of splenic eosinophils and B cells and the proportion of activated splenic B cells was examined. CD1-nude mice engrafted with C8161 human melanoma cells were treated with either PBS, murine IL-17E, or human IL-17E as described previously. At the endpoint of the experiment, spleens were isolated from treated mice, stained with markers specific for eosinophils (CCR3+), B cells (either IgM+ or CD19+), and B cell activation (CD-80+, CD86+), and examined by flow cytometry. Flow cytometry was performed as described in Example 4 above.
The percentage of eosinophils was determined by surface staining the granulocyte-gated population with phycoerythrin (PE)-conjugated anti-mouse CCR3. The percentage of B cells in the spleen was examined by surface staining with phycoerythrin (PE)-conjugated anti-mouse CD19. The proportion of activated splenic B cells was determined by staining with FITC-conjugated anti-mouse IgM together with PE-conjugated anti-mouse CD80 and PE-conjugated anti-mouse CD86. Statistical analysis was performed to compare eosinophil and B cell numbers/activation. P values <0.01 were considered to be significant.
In order to confirm that the effect of BD-BRM on splenic B cells as described in Example 5 is due to interleukin 17E activity, the effect of interleukin 17E on numbers and activation status of splenic B cells was examined. CD1-nude mice engrafted with C8161 human melanoma cells were treated with either PBS or murine IL-17E as described previously. At the endpoint of the experiment, spleens were isolated from treated mice, stained with markers specific for B cells (IgM+), and B cell activation (CD-80+, CD86+), and examined by flow cytometry. Flow cytometry was performed as described in Example 4 above.
Splenocytes were analyzed for the percentage of B cells by surface staining with FITC-conjugated anti-mouse IgM antibodies. Activated B cells were determined by surface staining with FITC-conjugated-anti-mouse IgM antibodies, and PE-conjugated-anti-mouse CD80 and PE-conjugated-anti-mouse CD86. Statistical analysis was performed to compare B cell numbers/activation. P values <0.01 were considered to be significant.

B1: murine IL-17E: Murine IL-17E from R&D Systems; predominant form starting at Val 17 of GenBank NP 542767 (protein)
chain: VSLRIQEGCSHLPSCCPSKEQEPPEEWLKWSSASVSPPEPLSHTHHAESCRASKDGPLNSRAISPWSYELDRDLNRVPQDLYHARCLCPHCVSLQTGSHMDPLGNSVPLYHNQTVFYRRPCHGEEGTHRRYCLERRLYRVSLACVCVRPRVMA
With B1, the “serum levels of IL-5 as compared to PBS” value in the test on IL-5 (mice engrafted with human melanoma C8161 cells) is given as “significantly higher”. In addition, the “serum levels of IL-5 as compared to PBS” value in the test on IL-5 (mice engrafted with human pancreatic cancer MiaPaCa2 cells) is recorded as “significantly higher”. Further, the “binding to murine IL-17E receptor on 70Z/3 cells (FACS)” value with murine IL-17E receptor is listed as “bound”. For the same molecule, the “percentage of splenic eosinophils (CCR3+, granulocyte-gated) as compared to PBS” value in test [1] is reported as “significantly increased”. In the test on splenic B cells (Example 21), the “percentage of splenic B cells (CD19+) as compared to PBS” value is on record as “significantly increased” and the “proportion of activated B cells (IgM, CD80, CD86) in the spleen as compared to PBS” value (“proportion … compared to PBS” below) was “significantly increased”. Besides, in the test with splenic B cells (Example 22), the “percentage of splenic B cells (IgM+) as compared to PBS” value was “significantly increased” and the “proportion … compared to PBS” value is “significantly increased”.

B2: human IL-17E: Recombinant human IL-17E from PeproTech; two 145 amino acid chains, predominant form starting at Tyr 33 of GenBank AAG40848 (protein, listed as Homo sapiens)
chain: YSHWPSCCPSKGQDTSEELLRWSTVPVPPLEPARPNRHPESCRASEDGPLNSRAISPWRYELDRDLNRLPQDLYHARCLCPHCVSLQTGSHMDPRGNSELLYHNQTVFYRRPCHGEKGTHKGYCLERRLYRVSLACVCVRPRVMG
For the molecule B2, in the test with murine IL-17E receptor, the “binding to murine IL-17E receptor on 70Z/3 cells (FACS)” value is “bound”. In addition, the “percentage of splenic eosinophils (CCR3+, granulocyte-gated) as compared to PBS” value in test [1] is on record as “significantly increased”. Further, in the test on splenic B cells (Example 21), the “percentage of splenic B cells (CD19+) as compared to PBS” value was “significantly increased” and the “proportion … compared to PBS” value is “significantly increased”.

These data come from US8287851B2, “Use of interleukin 17E for the treatment of cancer” (Lorus Therapeutics Inc., priority 2005, dated 2012).
